Reference: patent US7595158B2, “Bcl2L12 polypeptide activators and inhibitors” (Dana-Farber Cancer Institute, Inc., priority 2003, dated 2009)

T1: caspase-9 (Homo sapiens, UniProt P55211)
T1 construct: endogenous in cells; host or cells: 293T
T1 sequence (P55211 1-416): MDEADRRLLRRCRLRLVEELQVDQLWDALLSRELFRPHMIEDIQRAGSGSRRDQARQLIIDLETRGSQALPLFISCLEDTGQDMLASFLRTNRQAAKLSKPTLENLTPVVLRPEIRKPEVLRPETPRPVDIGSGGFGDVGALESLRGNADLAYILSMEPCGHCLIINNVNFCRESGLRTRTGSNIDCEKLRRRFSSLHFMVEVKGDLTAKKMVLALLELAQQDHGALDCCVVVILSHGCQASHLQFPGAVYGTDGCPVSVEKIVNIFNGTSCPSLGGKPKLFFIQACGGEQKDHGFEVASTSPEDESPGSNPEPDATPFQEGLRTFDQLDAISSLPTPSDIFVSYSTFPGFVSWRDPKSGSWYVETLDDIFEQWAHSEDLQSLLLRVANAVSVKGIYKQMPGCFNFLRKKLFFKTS


Molecular target: T1, caspase-9
Assay: Caspase-9 in vitro cleavage and LEHDase activity assay with 293T cells
Type: cell-based
Conditions: V5 tagged constructs; vector only about 420 RFUs
Excerpt: To determine if Bcl2L12 polypeptides could-regulate-the activity of caspase-9, a cell-free system was used in which exogenously added dATP and cytochrome c induced the activation of [^35S] labeled in vitro translated caspase-9. […] To confirm the inhibitory effect of Bcl2L12 polypeptides on caspase-9 maturation, 293T cells ectopically expressing Bcl2L12-V5 polypeptides where either subjected to an in vitro cleavage assay or to an activity assay using the caspase-9 specific fluorogenic peptide LEHD.
In addition, vectors encoding V5 tagged wild-type human Bcl2L12 polypeptide (WT; human amino acid sequence 1-334) and three V5 tagged truncation mutants of human Bcl2L12 (Bcl2L12-ΔBH2 polypeptide, human amino acid sequence 1-310; Bcl2L12-ΔBH2ΔP-r polypeptide, human amino acid sequence 1-267; and Bcl2L12-ΔBH2ΔP-rΔIHD polypeptide, human amino acid sequence 1-167) were made (FIG. 4A). These vectors expressed the appropriately sized polypeptides when translated in vitro or when expressed in 293T cells.

caspase-9 activity | Molecule
about 160 RFUs | Bcl2L12-ΔBH2ΔP-rΔIHD: V5 tagged truncation mutant of human Bcl2L12, human amino acid sequence 1-167 (protein, left off: small tags and cut ends) MGRPAGLFPPLCPFLGFRPEACWERHMQIERAPSVPPFLRWAGYRPGPVRRRGKVELIKFVRVQWRRPQVEWRRRRWGPGPGASMAGSEELGLREDTLRVLAAFLRRGEAAGSPVPTPPRSPAQEEPTDFLSRLRRCLPCSLGRGAAPSESPRPCSLPIRPCYGLEP
about 130 RFUs | Bcl2L12-ΔBH2ΔP-r: V5 tagged truncation mutant of human Bcl2L12, human amino acid sequence 1-267 (protein, left off: small tags and cut ends) MGRPAGLFPPLCPFLGFRPEACWERHMQIERAPSVPPFLRWAGYRPGPVRRRGKVELIKFVRVQWRRPQVEWRRRRWGPGPGASMAGSEELGLREDTLRVLAAFLRRGEAAGSPVPTPPRSPAQEEPTDFLSRLRRCLPCSLGRGAAPSESPRPCSLPIRPCYGLEPGPATPDFYALVAQRLEQLVQEQLKSPPSPELQGPPSTEKEAILRRLVALLEEEAEVINQKLASDPALRSKLVRLSSDSFARLVELFCSRDDSSRPSRACP
